Reference: patent US20120121591A1 (priority 2009, published 2012)

How the values were obtained:
[1] = target: human Kv1.3 (Homo sapiens, UniProt P22001); assay: cell-based or functional assay
[2] = target: human Kv1.1 (Homo sapiens, UniProt Q09470); assay: cell-based or functional assay
Sequence of human Kv1.1 (Q09470 whole entry): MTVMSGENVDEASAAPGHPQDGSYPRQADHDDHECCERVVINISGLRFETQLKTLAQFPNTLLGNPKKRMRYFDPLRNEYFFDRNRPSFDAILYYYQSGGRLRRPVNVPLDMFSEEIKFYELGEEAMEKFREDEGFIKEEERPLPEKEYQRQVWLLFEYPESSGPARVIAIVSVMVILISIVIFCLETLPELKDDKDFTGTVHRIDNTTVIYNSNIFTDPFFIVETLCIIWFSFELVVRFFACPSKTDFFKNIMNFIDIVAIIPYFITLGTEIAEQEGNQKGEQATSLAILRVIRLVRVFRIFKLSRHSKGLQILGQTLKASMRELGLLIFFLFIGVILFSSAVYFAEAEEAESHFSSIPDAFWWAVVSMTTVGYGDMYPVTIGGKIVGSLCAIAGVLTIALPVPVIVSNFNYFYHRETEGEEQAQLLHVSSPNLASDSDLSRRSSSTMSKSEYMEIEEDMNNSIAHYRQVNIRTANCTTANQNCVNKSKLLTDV

Sequence of human Kv1.3 (P22001 whole entry): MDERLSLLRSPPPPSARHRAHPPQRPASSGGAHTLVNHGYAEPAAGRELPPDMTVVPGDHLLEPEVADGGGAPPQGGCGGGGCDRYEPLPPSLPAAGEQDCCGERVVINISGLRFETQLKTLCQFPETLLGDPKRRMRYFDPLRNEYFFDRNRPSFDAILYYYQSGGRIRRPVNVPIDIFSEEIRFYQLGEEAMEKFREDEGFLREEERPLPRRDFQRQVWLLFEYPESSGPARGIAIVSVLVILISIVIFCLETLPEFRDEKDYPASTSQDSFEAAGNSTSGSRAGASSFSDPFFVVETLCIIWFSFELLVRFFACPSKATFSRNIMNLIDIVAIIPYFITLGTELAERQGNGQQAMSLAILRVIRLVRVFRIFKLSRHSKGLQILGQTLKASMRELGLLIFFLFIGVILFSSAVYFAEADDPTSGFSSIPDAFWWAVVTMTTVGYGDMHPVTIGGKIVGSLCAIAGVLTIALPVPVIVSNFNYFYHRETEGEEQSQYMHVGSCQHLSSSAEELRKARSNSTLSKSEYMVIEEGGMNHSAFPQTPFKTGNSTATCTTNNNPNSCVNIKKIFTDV

## [Glu4; Lys16,29; 1-Nal26;Arg30]ShK-amide (peptide)
[1]
  Kv1.3 (IWQ) IC50: 0.384 nM
  WB (IFNg) IC50: 0.598 nM
  WB (IL-2) IC50: 0.712 nM

## [Glu4; Lys16,29;Arg18,30; Nle21]ShK-amide (peptide)
[1]
  Kv1.3 (IWQ) IC50: 0.269 nM
  WB (IFNg) IC50: 1.33 nM
  WB (IL-2) IC50: 1.96 nM

## [Glu4;Lys16,29;1-Nal26;Arg30;Nle21]ShK-amide (peptide)
[1]
  Kv1.3 (IWQ) IC50: 1.66 nM
  WB (IFNg) IC50: 17.4 nM
  WB (IL-2) IC50: 10.7 nM
[2]
  Kv1.1 (IWQ) IC50: 3.3 nM
